From paper PMC3760615 (The Journal of Cell Biology, 2013) come the findings set out here.

The assay has as its target T1, recombinant His-tagged drebrin ADFH-CC construct (human, UniProt Q16643 1-256).
T1 sequence: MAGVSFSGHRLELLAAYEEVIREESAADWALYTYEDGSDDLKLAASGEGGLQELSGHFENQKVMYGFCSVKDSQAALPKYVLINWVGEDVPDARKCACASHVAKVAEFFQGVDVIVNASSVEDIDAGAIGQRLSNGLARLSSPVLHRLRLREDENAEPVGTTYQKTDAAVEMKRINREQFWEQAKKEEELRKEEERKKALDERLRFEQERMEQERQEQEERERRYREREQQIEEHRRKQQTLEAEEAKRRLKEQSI
The assay can be described thus: co-sedimentation.

B1: recombinant His-tagged drebrin BB (blue box) domain (domain or fragment)
chain: VLAAPVEPATADATEIHDAADTIETDTATADTTVANNVPPAATSLIDLWPGNGEGASTLQGEPRAPTPPSGTEVTLAEVPLLDEVAPEPLLPAGEGCATLLNFDELPEPPATFCDPEEVEGESLAAPQTPTLPSALEELEQEQEPEPHLLTNGETTQKEGTQASEGYFSQSQEEEFAQSEELCAKAPPPVFYNKPPEIDITCWDADPVPEEEEGFEGGD
B1: the binding result was “binds”.
